Experimental data taken from the supplement of paper PMC10065799, “High-throughput profiling of sequence recognition by tyrosine kinases and SH2 domains using bacterial peptide display” (eLife, 2023).

Legend:
Grb2 SH2 = Grb2 SH2 (UniProt P62993); assay: SH2 binding enrichment of the phosphorylated peptide, bacterial display (enrichment ratio); higher = better substrate or ligand; peptides without Tyr show the background
c-Src SH2 = assay: as above
SHP2-C SH2 = assay: as above
Fer (mouse) = assay: phosphorylation enrichment, bacterial display (enrichment ratio); higher = better substrate or ligand; peptides without Tyr show the background
Hck = Hck (UniProt P08631); assay: as above
Hck, sequence (P08631 whole entry, looked up): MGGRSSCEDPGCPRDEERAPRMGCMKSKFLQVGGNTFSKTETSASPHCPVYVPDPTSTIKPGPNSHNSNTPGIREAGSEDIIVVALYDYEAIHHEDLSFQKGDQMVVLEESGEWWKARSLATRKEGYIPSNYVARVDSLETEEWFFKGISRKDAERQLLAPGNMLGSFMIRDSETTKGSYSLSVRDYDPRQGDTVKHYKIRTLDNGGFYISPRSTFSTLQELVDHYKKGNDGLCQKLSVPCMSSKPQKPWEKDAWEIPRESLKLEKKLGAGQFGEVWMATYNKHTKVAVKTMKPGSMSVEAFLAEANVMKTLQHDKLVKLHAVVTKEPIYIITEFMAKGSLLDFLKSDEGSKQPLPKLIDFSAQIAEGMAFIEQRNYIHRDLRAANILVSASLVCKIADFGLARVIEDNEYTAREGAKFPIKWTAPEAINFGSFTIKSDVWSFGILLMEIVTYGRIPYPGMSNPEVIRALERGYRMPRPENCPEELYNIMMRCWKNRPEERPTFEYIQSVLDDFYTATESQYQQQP

c-Src = assay: as above
c-Abl (mouse) = assay: as above
MERTK = MERTK (UniProt Q12866); assay: as above
MERTK, sequence (Q12866 whole entry, looked up): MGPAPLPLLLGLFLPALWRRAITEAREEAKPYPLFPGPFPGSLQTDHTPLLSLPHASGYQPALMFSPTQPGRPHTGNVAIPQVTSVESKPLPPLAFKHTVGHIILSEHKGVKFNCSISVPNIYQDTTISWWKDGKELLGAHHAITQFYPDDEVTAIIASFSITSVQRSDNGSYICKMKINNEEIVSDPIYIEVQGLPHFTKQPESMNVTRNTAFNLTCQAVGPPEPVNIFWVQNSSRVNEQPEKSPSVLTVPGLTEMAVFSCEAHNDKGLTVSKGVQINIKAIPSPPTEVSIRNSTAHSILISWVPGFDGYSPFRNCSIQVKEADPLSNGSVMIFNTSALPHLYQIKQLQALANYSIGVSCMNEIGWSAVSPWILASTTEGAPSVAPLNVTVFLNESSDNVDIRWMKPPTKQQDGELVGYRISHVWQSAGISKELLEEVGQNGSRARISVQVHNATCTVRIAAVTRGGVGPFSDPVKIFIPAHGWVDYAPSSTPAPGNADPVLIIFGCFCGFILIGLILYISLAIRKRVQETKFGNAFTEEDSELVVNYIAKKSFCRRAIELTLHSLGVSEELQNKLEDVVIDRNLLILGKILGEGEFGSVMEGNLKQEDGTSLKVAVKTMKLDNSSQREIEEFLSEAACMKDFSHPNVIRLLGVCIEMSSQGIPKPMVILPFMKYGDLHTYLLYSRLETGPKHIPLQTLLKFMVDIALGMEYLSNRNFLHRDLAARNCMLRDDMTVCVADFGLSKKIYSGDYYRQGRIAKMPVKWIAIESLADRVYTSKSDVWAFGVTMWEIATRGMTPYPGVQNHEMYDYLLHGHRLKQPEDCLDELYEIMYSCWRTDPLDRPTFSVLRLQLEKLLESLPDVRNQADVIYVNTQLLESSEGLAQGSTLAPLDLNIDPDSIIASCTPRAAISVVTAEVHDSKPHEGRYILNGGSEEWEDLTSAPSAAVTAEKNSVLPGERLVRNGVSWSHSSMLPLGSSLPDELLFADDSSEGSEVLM

Fes = Fes (UniProt P07332); assay: as above
EPHB1 = EPHB1 (UniProt P54762); assay: as above
EPHB1, sequence (P54762 whole entry, looked up): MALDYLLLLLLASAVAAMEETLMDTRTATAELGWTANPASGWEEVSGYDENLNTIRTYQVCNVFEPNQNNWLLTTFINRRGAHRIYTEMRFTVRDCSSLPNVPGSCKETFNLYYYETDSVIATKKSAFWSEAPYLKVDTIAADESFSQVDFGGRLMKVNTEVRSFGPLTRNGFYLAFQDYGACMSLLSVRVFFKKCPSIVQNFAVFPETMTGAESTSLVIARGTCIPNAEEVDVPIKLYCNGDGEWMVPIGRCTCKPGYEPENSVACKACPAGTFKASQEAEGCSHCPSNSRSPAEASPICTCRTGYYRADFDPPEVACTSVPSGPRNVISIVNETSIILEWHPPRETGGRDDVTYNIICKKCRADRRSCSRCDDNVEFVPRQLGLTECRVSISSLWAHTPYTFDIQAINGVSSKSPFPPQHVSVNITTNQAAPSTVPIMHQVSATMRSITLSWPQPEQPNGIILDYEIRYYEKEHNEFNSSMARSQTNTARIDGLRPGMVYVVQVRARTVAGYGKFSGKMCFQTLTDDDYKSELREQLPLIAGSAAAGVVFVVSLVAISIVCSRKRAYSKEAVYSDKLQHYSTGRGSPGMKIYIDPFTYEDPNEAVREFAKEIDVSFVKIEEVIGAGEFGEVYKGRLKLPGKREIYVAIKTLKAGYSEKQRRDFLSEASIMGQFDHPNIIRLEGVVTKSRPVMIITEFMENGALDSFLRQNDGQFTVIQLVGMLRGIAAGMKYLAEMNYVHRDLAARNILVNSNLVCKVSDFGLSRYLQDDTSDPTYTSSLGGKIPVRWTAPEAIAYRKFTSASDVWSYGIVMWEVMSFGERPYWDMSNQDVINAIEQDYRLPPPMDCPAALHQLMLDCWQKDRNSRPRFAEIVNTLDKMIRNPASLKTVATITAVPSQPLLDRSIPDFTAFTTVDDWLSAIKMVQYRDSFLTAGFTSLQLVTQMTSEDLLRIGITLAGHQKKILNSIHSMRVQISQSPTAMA

Fyn = Fyn (UniProt P06241); assay: as above
Fyn, sequence (P06241 whole entry, looked up): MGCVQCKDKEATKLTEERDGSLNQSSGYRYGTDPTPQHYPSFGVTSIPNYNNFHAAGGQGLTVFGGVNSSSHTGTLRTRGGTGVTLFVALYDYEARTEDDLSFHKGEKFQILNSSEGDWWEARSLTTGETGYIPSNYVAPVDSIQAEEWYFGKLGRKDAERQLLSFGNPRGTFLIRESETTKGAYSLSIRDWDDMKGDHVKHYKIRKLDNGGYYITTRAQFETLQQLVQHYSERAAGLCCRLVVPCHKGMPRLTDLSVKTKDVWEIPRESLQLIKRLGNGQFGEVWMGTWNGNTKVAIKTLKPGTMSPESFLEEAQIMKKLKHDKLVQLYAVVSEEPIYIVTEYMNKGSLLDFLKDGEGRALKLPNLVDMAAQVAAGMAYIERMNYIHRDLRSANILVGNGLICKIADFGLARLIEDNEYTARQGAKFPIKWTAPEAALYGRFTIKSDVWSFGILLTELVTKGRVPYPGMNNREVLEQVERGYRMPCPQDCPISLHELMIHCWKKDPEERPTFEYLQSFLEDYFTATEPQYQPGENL

EPHB2 = EPHB2 (UniProt P29323); assay: as above
AncSZ = assay: as above
Jak2 = Jak2 (UniProt O60674); assay: as above
Jak2, sequence (O60674 whole entry, looked up): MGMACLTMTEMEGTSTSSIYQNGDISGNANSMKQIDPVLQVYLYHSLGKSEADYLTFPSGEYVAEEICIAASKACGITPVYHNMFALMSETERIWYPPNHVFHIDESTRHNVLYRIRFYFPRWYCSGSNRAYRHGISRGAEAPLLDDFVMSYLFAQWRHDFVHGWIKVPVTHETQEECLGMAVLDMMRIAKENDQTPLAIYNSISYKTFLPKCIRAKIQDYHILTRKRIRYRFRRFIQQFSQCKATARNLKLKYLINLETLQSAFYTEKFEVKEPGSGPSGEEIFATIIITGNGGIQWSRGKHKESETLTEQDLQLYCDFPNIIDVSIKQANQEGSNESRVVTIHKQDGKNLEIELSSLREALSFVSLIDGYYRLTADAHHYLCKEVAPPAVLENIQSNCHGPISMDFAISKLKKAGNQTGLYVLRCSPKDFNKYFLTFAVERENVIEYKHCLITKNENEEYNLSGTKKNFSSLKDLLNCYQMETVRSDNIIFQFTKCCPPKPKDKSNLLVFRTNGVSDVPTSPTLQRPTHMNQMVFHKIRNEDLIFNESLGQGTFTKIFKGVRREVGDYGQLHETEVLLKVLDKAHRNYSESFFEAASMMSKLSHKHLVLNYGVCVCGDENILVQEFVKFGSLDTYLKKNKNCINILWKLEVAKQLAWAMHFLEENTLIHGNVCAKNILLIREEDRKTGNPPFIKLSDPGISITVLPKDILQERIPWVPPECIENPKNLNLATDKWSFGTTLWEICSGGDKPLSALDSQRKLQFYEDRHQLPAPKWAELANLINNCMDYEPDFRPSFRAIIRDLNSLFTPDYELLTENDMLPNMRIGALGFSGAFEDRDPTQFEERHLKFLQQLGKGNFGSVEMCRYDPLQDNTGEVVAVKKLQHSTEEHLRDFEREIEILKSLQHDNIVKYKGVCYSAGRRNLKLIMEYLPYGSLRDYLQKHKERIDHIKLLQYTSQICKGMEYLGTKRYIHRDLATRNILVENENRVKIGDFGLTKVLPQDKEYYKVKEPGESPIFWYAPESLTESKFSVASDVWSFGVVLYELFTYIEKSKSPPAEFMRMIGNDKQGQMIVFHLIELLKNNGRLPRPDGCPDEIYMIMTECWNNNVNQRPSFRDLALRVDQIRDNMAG

FGFR3 = FGFR3 (UniProt P22607); assay: as above
FGFR3, sequence (P22607 whole entry, looked up): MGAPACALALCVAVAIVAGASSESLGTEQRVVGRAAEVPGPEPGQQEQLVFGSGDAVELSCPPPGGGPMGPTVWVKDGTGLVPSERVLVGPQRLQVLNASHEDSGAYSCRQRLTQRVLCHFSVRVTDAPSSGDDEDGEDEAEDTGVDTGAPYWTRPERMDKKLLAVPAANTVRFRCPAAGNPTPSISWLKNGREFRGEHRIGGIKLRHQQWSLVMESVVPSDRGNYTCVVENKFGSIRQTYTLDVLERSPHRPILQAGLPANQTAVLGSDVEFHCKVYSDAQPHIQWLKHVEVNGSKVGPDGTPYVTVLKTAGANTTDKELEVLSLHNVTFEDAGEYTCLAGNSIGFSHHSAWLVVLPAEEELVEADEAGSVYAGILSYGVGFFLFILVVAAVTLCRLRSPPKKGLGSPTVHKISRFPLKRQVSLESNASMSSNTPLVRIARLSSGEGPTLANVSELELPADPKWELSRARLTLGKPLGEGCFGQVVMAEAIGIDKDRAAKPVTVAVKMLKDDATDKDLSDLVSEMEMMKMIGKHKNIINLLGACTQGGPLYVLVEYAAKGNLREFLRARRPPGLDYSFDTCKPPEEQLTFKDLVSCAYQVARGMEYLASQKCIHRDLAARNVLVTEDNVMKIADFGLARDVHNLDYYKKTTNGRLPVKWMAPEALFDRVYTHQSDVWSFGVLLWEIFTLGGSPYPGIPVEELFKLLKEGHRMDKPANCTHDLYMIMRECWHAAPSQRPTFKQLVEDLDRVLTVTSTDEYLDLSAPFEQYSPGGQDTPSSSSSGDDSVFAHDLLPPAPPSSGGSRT

FGFR1 = FGFR1 (UniProt P11362); assay: as above
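Wherever SH2 binding enrichment of the phosphorylated peptide, bacterial display is given: peptide library displayed on the E. coli surface as eCPX fusions, selected cells deep-sequenced, score is each peptide's frequency after selection divided by its frequency in the input.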
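Wherever phosphorylation enrichment, bacterial display is given: 11-residue human phosphosite peptides and single-mutation variants displayed on the E. coli surface, counted by deep sequencing, each peptide's frequency after selection divided by its frequency in the unselected input library; frequency after pTyr selection over input frequency; kinase dosed for 20-30% of maximal phosphorylation in three min.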

Row | Sequence | SH2 binding enrichment (Grb2 SH2) | SH2 binding enrichment (c-Src SH2) | SH2 binding enrichment (SHP2-C SH2) | phosphorylation enrichment (Fer (mouse)) | phosphorylation enrichment (Hck) | phosphorylation enrichment (c-Src) | phosphorylation enrichment (c-Abl (mouse)) | phosphorylation enrichment (MERTK) | phosphorylation enrichment (Fes) | phosphorylation enrichment (EPHB1) | phosphorylation enrichment (Fyn) | phosphorylation enrichment (EPHB2) | phosphorylation enrichment (AncSZ) | phosphorylation enrichment (Jak2) | phosphorylation enrichment (FGFR3) | phosphorylation enrichment (FGFR1)
1 | FSSLGYPLPEG [ZSWIM4_Y87_P89L_YF] | 1.02 | 0.589 | 1.07 | 0.394 | 0.525 | 0.42 | 0.501 | 0.519 | 0.722 | 0.372 | 0.446 | 0.446 | 0.747 | 0.635 | 0.472 | 0.413
2 | WRVIGYHVVVW [ATP13A2_Y50] | 1.08 | 0.727 | 0.915 | 0.587 | 0.568 | 0.501 | 0.903 | 0.417 | 1.25 | 0.695 | 0.444 | 0.692 | 1.21 | 1.19 | 0.828 | 0.551
3 | HDRNTYEKYLE [TF_Y666_G671E] | 0.681 | 1.62 | 1.14 | 0.715 | 0.736 | 0.995 | 1.08 | 0.506 | 1.21 | 0.505 | 0.856 | 0.595 | 1.07 | 1.24 | 0.748 | 0.584
4 | KPNMNYDKLSQ [FLI1_Y332_R337Q] | 0.882 | 1.15 | 0.659 | 0.462 | 0.431 | 0.478 | 0.431 | 0.394 | 0.578 | 0.418 | 0.422 | 0.446 | 0.495 | 0.612 | 0.447 | 0.468
5 | IGMSSYVMLAS [GGCX_Y301_F299S] | 0.771 | 1.43 | 1.79 | 0.522 | 0.452 | 0.546 | 0.875 | 0.878 | 1.2 | 0.853 | 0.496 | 0.655 | 1.34 | 1.66 | 1.36 | 1.88
6 | DENWFYTQAAS [RPS19_Y54_R56Q] | 0.906 | 0.881 | 0.726 | 0.483 | 0.392 | 0.472 | 0.62 | 0.395 | 1.06 | 0.49 | 0.388 | 0.877 | 1.15 | 0.876 | 0.682 | 0.455
7 | NMHSTYAKLAA [SEC22B_Y193] | 0.796 | 1.71 | 13.7 | 0.34 | 0.948 | 0.375 | 0.47 | 0.38 | 0.401 | 0.437 | 0.415 | 0.451 | 0.382 | 0.362 | 0.349 | 0.385
8 | HHIDYYKKTTN [FGFR1_Y654] | 0.699 | 0.443 | 0.535 | 0.646 | 0.481 | 0.481 | 0.569 | 0.663 | 0.633 | 0.47 | 0.711 | 0.721 | 0.577 | 0.592 | 0.803 | 0.568
9 | FETSHYPASPD [CTNND2_Y1217_YF] | 1.03 | 0.383 | 0.992 | 0.486 | 0.435 | 0.31 | 0.463 | 0.323 | 0.77 | 0.483 | 0.361 | 0.408 | 0.52 | 0.553 | 0.508 | 0.475
10 | HNLPIYEGFAL [ACTA1_Y168_V165L_YF] | 0.837 | 0.579 | 0.721 | 21.9 | 12.8 | 9.44 | 14 | 12.6 | 2.8 | 17.5 | 14.1 | 24.3 | 1.86 | 0.996 | 1.13 | 0.677
11 | IRYPPYTDWNQ [ALDH3B2_Y365_H361R] | 0.76 | 0.767 | 0.76 | 0.567 | 0.464 | 0.418 | 0.487 | 0.429 | 0.826 | 0.428 | 0.468 | 0.494 | 0.781 | 0.675 | 0.612 | 0.628
12 | RRSKMYLKTRS [LPL_Y329_S325R] | 0.981 | 0.319 | 0.647 | 0.514 | 0.602 | 1.03 | 0.578 | 0.659 | 0.709 | 0.448 | 0.708 | 0.845 | 0.728 | 0.889 | 0.571 | 0.599
13 | NTVDYYDLYGG [PTPN11_Y63_G60V] | 0.985 | 0.801 | 0.692 | 1.19 | 5.68 | 4.25 | 0.788 | 1.35 | 1.21 | 4.4 | 6.7 | 3.7 | 2.56 | 1.47 | 13.1 | 15.3
14 | MNPPPYSQLLS [FGF23_Y154_F157L] | 0.776 | 1.34 | 0.656 | 0.483 | 0.568 | 0.644 | 0.489 | 0.451 | 0.623 | 0.639 | 0.522 | 0.606 | 0.692 | 0.523 | 0.71 | 0.527
